Experimental data from the nanobody polyreactivity screen of Harvey et al. (2022).

Test: yeast display, Sf9 membrane polyspecificity reagent, FACS + sequencing; frameworks hold sequencing errors
How it was run: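 Polyreactivity labels are assigned by the sorting gate from which each nanobody was recovered. The gates were low and high (top ~1%), set on anti-HA fluorescence for expression and streptavidin fluorescence for reagent binding. Before sorting, galactose-induced (36–48 hours) yeast display cells were stained for 1 hour at 4 °C with 10% biotinylated, detergent-solubilized Sf9 membrane reagent.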

| Sequence | polyreactivity (PSR sort gate) |
| --- | --- |
| QVQRVESGGGLVQAGGSLRLSCAASGRTFYPYLMGWYRQSPGKERELVARIRWSGSSTYYADSVKGRFTISRDNAKNTVYFQMNSLKPEDTAVYYCNARPSWYVFGSSVHSGMGYWGQGTQVTVSS | high polyreactivity |
| QVQRVESGGGLVQAGGSLRLSCAASGSIFFDGNAMGWYRQAPGQERELVAAISVSGGSTYYADSVKGRFTISRDNAKNTVYLQMNSLKPEDTAVYYCAKYPSKSYVPGDYWGQGTQVTVSS | low polyreactivity |
| QVQRVESGGGLVQAGGSLRLSCAASGSIFGPNAMGWYRQAPGKERELVAAITLSGGSTYYADSVKGRFTISRDNAKNTVYLQMNSLKPEDTAVYYCAAEYYQTTYVWWTYDYYWGQGTQVTVSS | low polyreactivity |
| QVQRVESGGGLVQAGGSLRLSCAASGSIFLSYDMGWYRQAPGKERELVAAITQSGGSTYYADSVKGRFTISRDNAKNTVYLQMNSLKPQDTAVYSCAVRVSGPRGYDYEYWGQGTQVTVSS | low polyreactivity |
| QVQRVESGGGLVQAGGSLRLSCAASGSIFSSNVMGWYRQAPGKEREIVAAITTGGSTNYADSVKGRFTISRDNAKNTVYLQMYCLKREDTAFYYCSFSYGYYLFVDWGYGCWGQGSQVTVSS | low polyreactivity |
| QVQRVESGGGLVQAGGSLRLSCAASGSIFYQYAMGWYRQAPGKEREVVAAITIGGSTNYADSVKGRFTISRDNAKNTVYLQMNSLKPEDTAVYYCNADKNWYGHEYDYWGQGTQVTVSS | low polyreactivity |
| QVQRVESGGGLVQAGGSLRLSCAASGSIIAGYPMGWSRQAPGKERELVAGIRRGGSTNYADSVKGRFTISRDNAKKTVYLQMNSLKPEDTAVYYCNAQRTRSYVLRTFDYWGQGTQVTVSS | high polyreactivity |
| QVQRVESGGGLVQAGGSLRLSCAASGSIIQPYARGWYRQSPGKERELVAAIRSSTGSTYYADSVKGRFTISRDIAKNTVYLQQNSLKPEDSAVYYCARRRWSYVRGYSSGMYYWGQGTQVTVSS | high polyreactivity |
| QVQRVESGGGLVQAGGSLRLSCAASGSTFPRNAMGWYRQAPGKEREFVAAISYSGGRTYYADSVKGRFTISRDNAKNTVYLQMNSLKPEDTAVYYCAAQPYSHVRGKSYGYWGQGTQVTVSS | high polyreactivity |
| QVQRVESGGGLVQAGGSLRLSCAASGSTLYGYALGWYRQAPGKERELVAAISVSGGRTYYADSVKGRFTISRDNAKNTVYLQMNSLKPEDTAVYYCAADGLSPYSGDYWGQGTQVTVSS | high polyreactivity |
| QVQRVESGGGLVQAGGSLRLSCAGTGSIFTSNAMRWYRQARGNERELVASISYISGGTYYADSVKGRFTISRDNAKNTVYLQMNSLKPEDTAVYYCAAEQTWGSCQYDPRTYDYWGQGNQVTVSS | low polyreactivity |
| QVQRVESGGGLVQAGGSLRLSSPASGRMGWYRQAPGKERELVAAITSGDRTNYADSVKGRFTISRDNAKNTVYLQMNSLKPEDTAVYYCATERSWYHGFIDPRGYWGQGTQVTVSS | low polyreactivity |
| QVQRVESGGGLVQAGGSLRLTCAPSGFIFYYYAMGWYRQAPGKEMQLVAAIDSGGSTYADSVNGRFTISRDNAKNTVYLQMTSLKPEDTAVYYCAADYYLPWYPDYDYWGQGTQVTVSS | low polyreactivity |
| QVQRVESGGGLVQARGSLRLSCAASGRIFTKYAMGWYRQAPGKVRELVAGITSRGGSTYYADSVKGRFTISRDIANNTGYLQMNSLKPEDTAVYYCNAYRVGRYDYWGQGTQVTVSS | high polyreactivity |
| QVQRVESGRGLFHAGGSLRLSCAASGSIFIWNDMGWYRQAPGKERELVAAITISAGSTSYADSVKGRFTISRDNAKNTVYLQMKSLKPEDTAVYYCAAASWLGAYGYEYDYWGQGTQVTVSS | low polyreactivity |
| QVQRVESRGGLVQAGGTLRLSCAASGSTFGVNAKGCYSQAPGKDRELVATISRGTSTNYADSVKGRFTISRDNAKNTVYLQMNSLKPEDTAVYYCAKRVFYPGAYRYYYCGQGTQVTVSS | high polyreactivity |

| Sequence | polyreactivity (PSR sort gate) |
| --- | --- |
| QVQVLESGGGLFQAGGRLRLSCAASGRTFRSYAMGWYRQAPGKERELVAAIRRGGSTNYADSVKGRFTISRDNAKNTVYLQMNSEKPEDTAVYYCAARGWSYRSVGYMDYWGQGTQVTVSS | high polyreactivity |
| QVQVLESGGGLVQAGGSLRLSCAASGRTFYWNAMGWYRQAPGKERELDAVISQSGGSTYYADSVKGRFTISRDNAKNTVYLQMNSLQPEDTAVYYCNKATRHHFYYWGQGTQVTVSS | high polyreactivity |
| QVQVVESGAGEVQAGGSLRLSCAASGSIFPFNAMGWYRQAPGKERELVAAISVNGGSTYYADSVKGRFTISRDNAKNTVYIQMNSLKPEDTAVYYCNTGGTFLDWVRRPFGFGYWGQGTQVTVSS | low polyreactivity |
| QVQVVESGGALVQAGGSLRLSCAASGSTFYNYAMGWYRPAPGKERELVAAISSGGGITYYADSVKGRFTISRDNAKNNVYVQMNSLKPEDTAFYYCNARRKYLGYNYWGQGTQVTVSS | high polyreactivity |
| QVQVVESGGGFVQAGGSLRISCAASGRIFATYAMGWYRQAPGKERELVAAISDSGGRTYYADSVKGRFTISRDTAKNTVYFQMNSLKPEDTAVYYCNARGTRASRYDYWGQGTQVTVSS | high polyreactivity |
| QVQVVESGGGIVHAEGSLRLSCAPSGLTFPVYAMVWYRQAPRKERELVAAISKSGGNTYYADSVKGRFTISRDNAKNTVYLQMNSLKPEDTAVYYCAAGYLSGNYARYGYWGQGTQVTVSS | high polyreactivity |
| QVQVVESGGGIVQAGGSLGLSCAASGSNFSYNAMGWYRQAPRKERELVATISNTDSTNYADSVKGRFTISRDNAKNTVYLQMNSLKPEDTAVYYCAVVSARIDYEYWGQGTQVTVSS | low polyreactivity |
| QVQVVESGGGLVHAGGSHRLSCAASGSIFPPYSMGWYRQAPGKEREFVAAISYSGGSTYYADSVKGRFTISRDNGKHTVYFQMNSLKPEDTAVYYCGADRYGFYLESYYWGQGTQGTVSS | low polyreactivity |
| QVQVVESGGGLVKAGGSLRLSCDASGSTFRDYVMGWYRQAPGKERELVAAITGSGSSTYYADSVKGRFTISRDNAKNSVYLQMNSLKPEDTAVYYCAATWVVSYRVNRSYYWGQGTQVTVSS | low polyreactivity |
| QVQVVESGGGLVQAGGCLRLSCAASGVIFVGYAMGWYRQAPGKERELVAAISWSGGSTYYADSVKGRFTISRDKAKNTVYLQMNSLKPEDTAVYYCAAYLYGYEYWGQGTQVTVSS | high polyreactivity |
| QVQVVESGGGLVQAGGRLRLSFAASGFTFESYAMGWYRQAPGKERELVPAISDGGGDTYYADSVKGRFTISRDNAKNTVYLQMNSLKPEDTAVYYCAAEWDGNWSRCAGGYDYWGQGTQVTVSS | low polyreactivity |
| QVQVVESGGGLVQAGGSLGLSCAASGFTFGRYARGWYRQAPGKERELVAAISRGGSTYYADSVKGRFTISRDNAMYTDYLQMNSLKTEDTAVYYCNAAGLPTQLYYWGQGTQVTVSS | high polyreactivity |
| QVQVVESGGGLVQAGGSLGLSCAASGRTFRVYAMGWYRQAPGKERELVASITRGGGTYADSVKGRFTISRDNAKNTVYLQMNCLKPEDTAVYYCNARWQRSTGGRQRYDYWGLGTQVTVSS | high polyreactivity |
| QVQVVESGGGLVQAGGSLRISCAASGRISVVHAMGWYRQAPGKERELVATINSGGSTYADSVKGRFTNSRDNAKNNVFFQMISQIPEDTAFYYCSARTFRISRLDFWGQCTQVTVSS | high polyreactivity |
| QVQVVESGGGLVQAGGSLRLSCAASGFIFRRYAMGWYRQAPGKEMELVAAINYSGGSTYYADSVKGRFTISRDNEKNTVYLQMKSLKPEDNAVYYCNAYGLRYYEYDYWGQGTQVTVSS | low polyreactivity |
| QVQVVESGGGLVQAGGSLRLSCAASGFTIFSYAMGWYRQAPGKERELVAAISRRGGSTYYADSVKGRFTISRDNAKNTVYLQMNSLKPEDTAVYYCNAKWTSHGTYAEDYWGQGTQVTVSS | high polyreactivity |
